According to patent US20250145701A1:

Assays:
[1] = biological target: monkey PD-1 (ACRO, His tag) (monkey) (UniProt B0LAJ3); experiment: ELISA, monkey PD-1-His coated at 1 ug/mL, anti-human IgG Fc detection
[2] = biological target: monkey PD-1 (ACRO, His tag) (monkey) (UniProt B0LAJ3); experiment: ELISA, monkey PD-1-His coated at 1 ug/mL, anti-human IgG Fc detection, OD450
[3] = biological target: human VEGF (ACRO, His tag) (human) (UniProt P15692); experiment: ELISA, human VEGF-His coated at 50 ng/ml, anti-human IgG Fc detection, OD450; negative control
Chain of human VEGF (ACRO, His tag) (human) (P15692 other isoform, or with tags, fused parts or gaps limits assumed): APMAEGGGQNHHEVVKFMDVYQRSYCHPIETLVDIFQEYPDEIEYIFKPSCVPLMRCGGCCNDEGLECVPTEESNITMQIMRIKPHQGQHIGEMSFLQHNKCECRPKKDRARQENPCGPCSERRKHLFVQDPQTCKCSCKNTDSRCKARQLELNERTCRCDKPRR

[4] = biological target: biotin-labeled human VEGF (ACRO, biotinylated protein) (human) (UniProt P15692); experiment: bridging ELISA: human PD-1-His coated at 1 ug/mL, antibody, then biotinylated human VEGF at 50 ng/ml and streptavidin-HRP, OD450; single-target control
Chain of biotin-labeled human VEGF (ACRO, biotinylated protein) (human) (P15692 other isoform, or with tags, fused parts or gaps limits assumed): as above

Chain of monkey PD-1 (ACRO, His tag) (monkey) (B0LAJ3 entry or part of it limits assumed, form in doubt): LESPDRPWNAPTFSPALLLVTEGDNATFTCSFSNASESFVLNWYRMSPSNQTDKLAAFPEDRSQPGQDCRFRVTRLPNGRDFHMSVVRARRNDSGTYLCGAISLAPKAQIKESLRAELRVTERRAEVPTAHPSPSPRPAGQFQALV

EC50 [1] [nM] | TOP OD [2] [OD] | TOP OD [3] [OD] | TOP OD [4] [OD] | Substance
0.187 | 3.08 |  |  | Keytruda (pembrolizumab) (antibody)
0.153 | 2.99 | 0.048 | 0.048 | Opdivo (nivolumab) (antibody)
